# Reference: publication PMC5365251 (2017)
# Non-standard residues stand in square brackets, D forms with d. Primed or numbered codes have the meaning given here. No end group written: not given here. *: point of attachment. PEG28′ = (PEG)28 spacer, 28 polyethylene glycol repeats; Biotin = O=C1N[C@H]2[C@H](CS[C@H]2CCCCC(=O)*)N1; pY = N[C@@H](Cc1ccc(OP(=O)(O)O)cc1)C(=O)O
# T1: LAIR-1 ITIM phosphopeptide (PEG28-ITIM) (Mus musculus)
# T1 chain: {Biotin-PEG28′}-DLQEVT[pY]IQLDHH
# Biological target: T1, LAIR-1 ITIM phosphopeptide (PEG28-ITIM)
# Test: SPR
binder,measurement,value
SHP-1 (protein) not shown,Kd,9.38 µM
